Measurements from patent US20080182978A1, “ANTI-NGF ANTIBODIES AND METHODS USING SAME” (RINAT NEUROSCIENCE CORP, priority 2002, published 2008).

Legend:
[1] = molecular target: human NGF (Homo sapiens, UniProt P01138); assay: Mouse E13.5 trigeminal neuron survival assay, human NGF; assay type: cell-based; settings: 0.4 ng/ml human NGF (saturating); 0.00128-20 nM
Description: The ability of Fab E3 or full antibody E3 to block NGF activity was evaluated by measurement of the capacity of the antibody to inhibit NGF-dependent survival of mouse E13.5 trigeminal neurons in vitro. The trigeminal ganglion is comprised of cutaneous sensory neurons that innervate the facial region. The survival of mouse E13.5 trigeminal neurons is a sensitive assay to evaluate the NGF-blocking activity of anti-NGF antagonist antibodies because NGF is required to support survival of these neurons. For example, at saturating concentrations of NGF, the survival is close to 100% by 48 hours in culture. By contrast, less than 5% of the neurons survive by 48 hours in absence of NGF.
The survival assay was conducted as follows: time-mated pregnant Swiss Webster female mice were euthanized by CO2 inhalation. The uterine horns were removed and the embryos at embryonic stage E13.5 were extracted and decapitated. The trigeminal ganglia were dissected using electrolytically sharpened tungsten needles. The ganglia were then trypsinized, mechanically dissociated and plated at a density of 200-300 cells per well in defined, serum-free medium in 96-well plates coated with poly-L-ornithine and laminin.
After 48 hours in culture, the cells were subjected to an automated immunocytochemistry protocol performed on a Biomek FX liquid handling workstation (Beckman Coulter) as follows: fixation using 4% formaldehyde, 5% sucrose, and PBS; permeabilization using 0.3% Triton X-100 in PBS); blocking of unspecific binding sites using 5% normal goat serum, 0.11% BSA in PBS; and sequential incubation with a primary and secondary antibodies to detect neurons. The primary antibody was rabbit polyclonal antibody against the protein gene product […] (PGP9.5, Chemicon), an established neuronal phenotypic marker. The secondary antibody was Alexa Fluor 488 goat anti-rabbit (Molecular Probes), together with the nuclear dye Hoechst 33342 (Molecular Probes) to label the nuclei of all the cells present in the culture. […]

[2] = system: moderate to severe pain from osteoarthritis of the knee; assay: Clinical study, osteoarthritis of the knee: index knee pain VAS, PID/SPID; assay type: in vivo, human
From the text: Adult males and females (ages between 35 to 65) who were experiencing moderate-to-severe pain from osteoarthritis of the knee, but were in otherwise overall good health were enrolled in the study. During the screening period, patients were required to discontinue arthritis medications such as NSAIDs, cyclooxygenase type-2 (COX-2) inhibitors, and opiates at least 14 days prior to administration of anti-NGF antibody E3. Patients were allowed to use rescue medications of acetaminophen or ibuprofen with some restrictions based on laboratory findings or past medical history. Some patients took rescue medications during the study, but rescue medications were not consumed for 2 days before and after administration of anti-NGF antibody E3. Thirty-four patients were admitted to the study and assessed as inpatients for on Study Days -1, 1 and 2. Anti-NGF antibody E3 administration occurred on the morning of Day 1. Electronic diaries were used to record index knee pain and rescue medication usage in clinic and at home. Ten patients were treated with placebo. Twenty-four patients were treated with anti-NGF antibody E3: four patients per dose level for 3 μg/kg (cohort 1), 10 μg/kg (cohort 2), and 30 μg/kg (cohort 3); and six patients per dose level for 100 μg/kg (cohort 4) and 300 μg/kg (cohort 5). The placebo used was sterile 0.9% Sodium Chloride Injection, USP (normal saline). Anti-NGF antibody E3 was a frozen liquid formulation consisting of 10 mg/ml antibody in an aqueous solution of 10 mM histidine, 275 mM sucrose, 0.01% polysorbate 20, pH 6.0. One hour prior to IV administration, frozen antibody was thawed and diluted into Sodium Chloride Injection, USP. The volume for each patient was calculated based on the subject's Day -1 weight and assigned dose level, ranging from 3-6 cc for cohort 1, 10-20 cc for cohort 2, 30-60 cc for cohort 3, and 100 cc for cohort 4 and cohort 5. For cohorts 1 and 2, antibody E3 was administered by a slow IV bolus over 3 to 5 minutes, followed with an IV flush of 5 cc Sodium Chloride Injection, USP. For cohorts 3-5, antibody E3 was administered at 100 cc/hour via infusion pump, followed with an IV flush of 5 cc Sodium Chloride Injection, USP and discontinuation of the IV. Within each cohort, the placebo (Sodium Chloride Injection, USP) was administered by slow bolus or continuous infusion in the same fashion as the antibody E3. After two in-patient days, patients were discharged home. […] Periodic safety assessments was performed for 181 days in all patients. Analgesic effects were assessed before dosing and at multiple times after administration of antibody E3. […] Patients were cued 4 times daily and instructed to indicate the level of arthritis pain in the index knee at that moment. […] VAS for index knee pain during walking was completed daily, concurrent with the fourth current index knee pain VAS. Electronic diary for data collection was issued on day -8 and a 7-day screening assessment of electronic diary compliance was performed from day -8 to day -2 to determine success in using the electronic diaries for a given subject. Subjects were instructed to complete 4 diaries per day. The mean VAS recorded during the screening period is used as baseline for assessment of efficacy. Outcome was assessed as change from baseline (pain level during screening period), expressed as pain intensity difference (PID) or summed pain intensity difference (SPID) for different dose levels. Changes from baseline in the activity measurements were analyzed using an analysis of covariance (ANCOVA) model with treatment as the main factor and baseline pain as a covariate. For means and mean changes, comparisons of antibody E3 with placebo was made using Dunnett'[…] was used to assess the dose-response relationship.

Chain of human NGF (P01138 122-241): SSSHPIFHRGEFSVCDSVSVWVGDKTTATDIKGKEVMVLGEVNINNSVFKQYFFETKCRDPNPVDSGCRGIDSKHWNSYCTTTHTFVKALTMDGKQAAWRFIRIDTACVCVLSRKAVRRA

B1: E3: humanized, affinity matured anti-NGF antagonist antibody; variable regions SEQ ID NO:1 and 2; human IgG2a (A330P331 to S330S331), kappa (antibody, V domains shown)
VH: QVQLQESGPGLVKPSETLSLTCTVSGFSLIGYDLNWIRQPPGKGLEWIGIIWGDGTTDYNSAVKSRVTISKDTSKNQFSLKLSSVTAADTAVYYCARGGYWYATSYYFDYWGQGTLVTVS
VL: DIQMTQSPSSLSASVGDRVTITCRASQSISNNLNWYQQKPGKAPKLLIYYTSRFHSGVPSRFSGSGSGTDFTFTISSLQPEDIATYYCQQEHTLPYTFGQGTKLEIKRT
modifications: human IgG2a constant (A330S/P331S) and kappa constant missing
inhibition of NGF-dependent survival compared with antibody 911 and trkA immunoadhesin [1]: blocked NGF significantly better than either mouse monoclonal anti-NGF antibody 911 or the trkA immunoadhesin | Summed pain intensity differences (SPID) as compared to baseline ([2]; All E3 doses, Days 2-8): −713 | Summed pain intensity differences (SPID) as compared to baseline ([2]; All E3 doses, Days 2-14): −1269 | Summed pain intensity differences (SPID) as compared to baseline ([2]; All E3 doses, Days 2-21): −1752 | Summed pain intensity differences (SPID) as compared to baseline ([2]; All E3 doses, Days 2-28): −2254 | Summed pain intensity differences (SPID) as compared to baseline ([2]; E3 3 μg/kg single administration, Days 2-8): −572 | Summed pain intensity differences (SPID) as compared to baseline ([2]; E3 3 μg/kg single administration, Days 2-14): −956 | Summed pain intensity differences (SPID) as compared to baseline ([2]; E3 3 μg/kg single administration, Days 2-21): −1048 | Summed pain intensity differences (SPID) as compared to baseline ([2]; E3 3 μg/kg single administration, Days 2-28): −1067 | Summed pain intensity differences (SPID) as compared to baseline ([2]; E3 10 μg/kg single administration, Days 2-8): −671 | Summed pain intensity differences (SPID) as compared to baseline ([2]; E3 10 μg/kg single administration, Days 2-14): −1174 | Summed pain intensity differences (SPID) as compared to baseline ([2]; E3 10 μg/kg single administration, Days 2-21): −1623 | Summed pain intensity differences (SPID) as compared to baseline ([2]; E3 10 μg/kg single administration, Days 2-28): −2020 | Summed pain intensity differences (SPID) as compared to baseline ([2]; E3 30 μg/kg single administration, Days 2-8): −733 | Summed pain intensity differences (SPID) as compared to baseline ([2]; E3 30 μg/kg single administration, Days 2-14): −1371 | Summed pain intensity differences (SPID) as compared to baseline ([2]; E3 30 μg/kg single administration, Days 2-21): −2042 | Summed pain intensity differences (SPID) as compared to baseline ([2]; E3 30 μg/kg single administration, Days 2-28): −2566 | Summed pain intensity differences (SPID) as compared to baseline ([2]; E3 100 μg/kg single administration, Days 2-8): −766 | Summed pain intensity differences (SPID) as compared to baseline ([2]; E3 100 μg/kg single administration, Days 2-14): −1403 | Summed pain intensity differences (SPID) as compared to baseline ([2]; E3 100 μg/kg single administration, Days 2-21): −1996 | Summed pain intensity differences (SPID) as compared to baseline ([2]; E3 100 μg/kg single administration, Days 2-28): −2726 | Summed pain intensity differences (SPID) as compared to baseline ([2]; E3 300 μg/kg single administration, Days 2-8): −769 | Summed pain intensity differences (SPID) as compared to baseline ([2]; E3 300 μg/kg single administration, Days 2-14): −1340 | Summed pain intensity differences (SPID) as compared to baseline ([2]; E3 300 μg/kg single administration, Days 2-21): −1869 | Summed pain intensity differences (SPID) as compared to baseline ([2]; E3 300 μg/kg single administration, Days 2-28): −2521 | summed pain intensity differences (SPID) vs baseline, ANCOVA ([2]; single administration, p<0.05): pain reduction was statistically significant | mean daily pain intensity (VAS) vs baseline ([2]; single i.v. dose 3, 10, 30, 100 or 300 μg/kg, every dose tested): decrease of mean daily pain intensity | duration of pain intensity reduction / pain relief ([2]; single i.v. dose of 100 μg/kg): at least 80 days
